Molecular target: T1, Gal4 DNA binding domain (DBD) fused to the RXR ligand binding domain (GBD:RXR) (yeast; human, UniProt P04386 1-147; P19793 203-462, limits assumed)
T1 construct: Expressed inside yeast (PJ69-4A or MaV103) from plasmid pGBDRXR; The order DBD then LBD follows the name GBD:RXR; also called wild-type GBD:RXR; product of pGBDRXR
Assay: yeast two-hybrid type growth selection (chemical complementation), PJ69-4A on SC-Ade plates with 10^-5 M 9cRA
Description: The same colony was used for streaking on all the plates, ending with a SC plate to confirm efficient transfer of the cells to each plate. Both selective and non-selective plates were incubated at 30° C. for two days. Each set of genetic selection plates was replicated at least once.

- binding result: no binding
B1: Gal4 activation domain (GAD) without a coactivator domain (other, yeast, UniProt P04386 768-881, looked up)
chain: ANFNQSGNIADSSLSFTFTNSSNGPNLITTQTNSQALSQPIASSNVHDNFMNNEITASKIDDGNNSKPLSPGWTDQTAYNAFGITTGMFNTTTMDDVYNYLFDDEDTPPNPKKE
notes: range 768-881; Control expressed from pGAD10; also called Gal4 AD only; product of pGAD10
